Test [1] concerns the target CD20 on Daudi lymphoma cells (UniProt P11836). Description: flow cytometry on Daudi cells, goat anti-human Fc AF647; matched Fc density chosen for the comparison of C3b deposition, concentration not given.
The target of another test is FcγRIIIA (CD16) (human) (UniProt P08637). Description: cell-based or functional assay.
Chain of FcγRIIIA (CD16) (human) (P08637 17-254): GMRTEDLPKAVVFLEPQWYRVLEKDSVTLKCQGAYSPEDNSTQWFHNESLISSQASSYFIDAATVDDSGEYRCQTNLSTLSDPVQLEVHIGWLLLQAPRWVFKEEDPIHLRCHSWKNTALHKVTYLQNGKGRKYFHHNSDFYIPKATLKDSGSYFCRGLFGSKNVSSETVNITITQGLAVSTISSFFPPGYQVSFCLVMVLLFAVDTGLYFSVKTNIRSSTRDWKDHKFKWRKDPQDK

Chain of CD20 on Daudi lymphoma cells (P11836 whole entry): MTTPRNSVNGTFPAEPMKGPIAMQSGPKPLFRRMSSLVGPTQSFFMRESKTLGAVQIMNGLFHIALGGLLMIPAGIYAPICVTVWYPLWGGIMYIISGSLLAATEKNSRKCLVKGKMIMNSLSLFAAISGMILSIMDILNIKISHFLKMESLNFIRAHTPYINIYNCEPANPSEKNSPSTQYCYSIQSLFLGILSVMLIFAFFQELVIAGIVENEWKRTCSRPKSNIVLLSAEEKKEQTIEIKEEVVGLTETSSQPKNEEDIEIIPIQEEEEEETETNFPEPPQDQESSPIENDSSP

In turn, MabThera (rituximab, RTX) (antibody) displayed an MFI anti-Fc in test [1] of 12200 MFI. Further, in the test with FcγRIIIA (CD16) (human), the percentage of phagocytic macrophages, Daudi targets, absence of complement (ADCP) came to 8.6% and the percentage of phagocytic macrophages, Daudi targets, presence of complement (ADCP+CDCP) was 24.1%.

These data come from patent US20240360189A1.
